Experimental data from patent publication US20060057138A1 (published 2006).
Substitutions are numbered along the chain they refer to. Each block holds one binder with its values, some of them ahead of it.

Columns and labels:
[1] = target: T1, recombinant human Tie1-Fc (Tie1 extracellular domain fused to human Fc) (human, UniProt P35590 25-759); assay: SPR (BIAcore 3000), CM5 chip; format of this row not stated
T1 construct: also called human Tie1-Fc fusion protein; not shown: human Fc
T1 sequence: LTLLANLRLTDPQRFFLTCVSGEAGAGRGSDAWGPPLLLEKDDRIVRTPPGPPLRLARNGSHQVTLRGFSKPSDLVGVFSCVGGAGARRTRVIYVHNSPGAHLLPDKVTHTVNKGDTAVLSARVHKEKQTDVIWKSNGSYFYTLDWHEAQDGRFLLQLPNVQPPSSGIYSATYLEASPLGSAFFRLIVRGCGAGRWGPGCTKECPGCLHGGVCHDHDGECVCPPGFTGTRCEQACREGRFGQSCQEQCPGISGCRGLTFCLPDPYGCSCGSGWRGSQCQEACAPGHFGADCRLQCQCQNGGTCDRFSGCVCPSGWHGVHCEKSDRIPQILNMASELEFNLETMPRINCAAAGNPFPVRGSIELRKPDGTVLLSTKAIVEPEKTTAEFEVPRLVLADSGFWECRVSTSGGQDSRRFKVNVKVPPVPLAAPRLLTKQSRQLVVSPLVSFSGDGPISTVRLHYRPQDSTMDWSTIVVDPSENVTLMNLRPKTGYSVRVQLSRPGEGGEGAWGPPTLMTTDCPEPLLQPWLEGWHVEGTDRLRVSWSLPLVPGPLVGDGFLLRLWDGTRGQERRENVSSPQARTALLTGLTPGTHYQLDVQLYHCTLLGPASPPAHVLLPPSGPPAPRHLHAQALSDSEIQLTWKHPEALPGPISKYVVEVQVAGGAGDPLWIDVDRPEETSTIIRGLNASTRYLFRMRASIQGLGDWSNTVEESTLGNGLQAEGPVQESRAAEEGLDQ
Description: (§1) Affinity analysis of the Fab and IgGs was performed using surface plasmon resonance using a BIAcore 3000 instrument. For this analysis both dimeric (Tie1-Fc fusion protein) and monomeric (Tie1-HIS) versions of the extracellular domain of the Tie1 were used. The sensor chips used in these experiments were CM5 (dextran-coated) which allow immobilization of proteins to the chip via standard amine coupling chemistries. The concentration of flowed antibody was determined using a surface plasmon resonance based method. Using a high-density protein A sensor chip, under mass transport limited conditions, the response signal is dependent only on the concentration of the antibody in the sample under test. This approach allows a precise determination of the antibody concentration, a parameter important for accurate determination of the KD.
470 RUs of Tie1 HIS protein were coated on a CM5 sensor chip and 5, 20, 100, and 500 nM of the Fab flowed over the chip at four different flow rates ([…]), rates in which the system is not mass transport limited. Kinetic data was typically determined using a range of analyte concentrations and three different chip coating densities. The data from the lowest coating density that gave a good signal was typically chosen, this was often in a range from 50-100 RUs. Using such low coating densities allowed the sensor curves to be fit using BIAEVALUATION™ 3.0 software to a 1:1 model, often even when using a bivalent analyte (IgG or Tie1-Fc fusion protein). For bivalent analytes, when fit to a 1:1 model was not possible, the curves were fit using a 2:1 model.

[2] = target: T1, recombinant human Tie1-Fc (Tie1 …); assay: SPR, Tie1-Fc immobilized on CM5 sensor chip, bivalent anti-Tie1 as analyte
Description: as §1

[3] = target: T2, recombinant mouse Tie1-Fc (mouse, UniProt Q06806 23-755); assay: SPR, Tie1-Fc immobilized on the sensor chip, Fab as analyte
T2 construct: extracellular domain; also called Mouse Tie 1-Fc antigen; mouse Tie1-Fc fusion protein; not shown: Fc
T2 sequence (looked up): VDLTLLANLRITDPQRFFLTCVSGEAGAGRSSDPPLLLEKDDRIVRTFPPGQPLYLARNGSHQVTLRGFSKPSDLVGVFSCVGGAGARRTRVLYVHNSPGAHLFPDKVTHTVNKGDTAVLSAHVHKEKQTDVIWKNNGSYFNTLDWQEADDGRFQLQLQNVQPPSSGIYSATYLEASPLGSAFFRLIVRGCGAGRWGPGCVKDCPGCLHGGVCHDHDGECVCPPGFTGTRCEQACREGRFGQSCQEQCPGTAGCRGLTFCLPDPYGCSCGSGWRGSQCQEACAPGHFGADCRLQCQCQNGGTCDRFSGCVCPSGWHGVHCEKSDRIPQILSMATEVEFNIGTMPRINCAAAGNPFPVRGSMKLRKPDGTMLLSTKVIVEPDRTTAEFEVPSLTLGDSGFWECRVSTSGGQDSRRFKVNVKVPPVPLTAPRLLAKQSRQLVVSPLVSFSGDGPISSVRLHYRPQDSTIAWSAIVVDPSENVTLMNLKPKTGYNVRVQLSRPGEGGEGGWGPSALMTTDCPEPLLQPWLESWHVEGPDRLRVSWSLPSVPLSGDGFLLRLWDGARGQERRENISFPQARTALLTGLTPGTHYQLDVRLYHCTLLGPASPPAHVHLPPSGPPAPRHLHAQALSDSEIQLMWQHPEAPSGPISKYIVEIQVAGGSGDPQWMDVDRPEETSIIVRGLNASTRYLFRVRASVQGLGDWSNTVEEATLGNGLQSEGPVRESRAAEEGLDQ
Description: as §1

[4] = target: T1, recombinant human Tie1-Fc (Tie1 …); assay: as above
Description: as §1

Kd [1]: 5.4 nM
koff [1]: 4.47e-05 s⁻¹
kon [1]: 8260 M⁻¹ s⁻¹
B1: parental E3 Fab (Fab, V domains shown)
VH: EVQLLESGGGLVQPGGSLRLSCAASGFTFSMYGMVWVRQAPGKGLEWVSVISPSGGNTGYADSVKGRFTISRDNSKNTLYLQVNSLRAEDTAVYYCARAPRGYSYGYYYWGQGTLVTVSS
VL: DIQMTQSPLSLSASVGDRVTITCRASQGIGHYLAWYQQKPGKVPKLLIYTASTLQSGVPSRFSGSGSGTDFTLTINSLQPEDVATYYCQQFNSYPHTFGQGTRLDIK
notes: also called E3 Fab parental; parental Fab E3

Kd [2]: 0.2 nM
fold increase in affinity against the anti-Tie1 Fab [2]: > 10 fold
Kd [1]: 5.2 nM
koff [1]: 3.67e-05 s⁻¹
kon [1]: 7090 M⁻¹ s⁻¹
B2: DX-2220 (full length, IgG1, germlined human anti-Tie1 antibody E3b) (antibody, V domains shown)
VH: B1 VH with V83M
VL: DIQMTQSPSSLSASVGDRVTITCRASQGIGHYLAWYQQKPGKVPKLLIYTASTLQSGVPSRFSGSGSGTDFTLTISSLQPEDVATYYCQQFNSYPHTFGQGTRLEIKR
notes: also called E3b-IgG1; germlined E3b IgG1

Kd [3]: ~3 nM
Kd [4]: ~3 nM
Kd [1]: 4.7 nM
koff [1]: 4.41e-05 s⁻¹
kon [1]: 9300 M⁻¹ s⁻¹
B3: E3b Fab (heavy and light chain germlined E3 Fab) (Fab, V domains shown)
VH: B1 VH with V83M
VL: B1 VL with L9S, N76S, D105E
notes: The germlined heavy variable domain is printed with limits only under DX-2240; also called Fab E3b; germlined (E3b)
